This note sets out measurements from PMC11615109, “PinX1 suppresses cancer progression by inhibiting telomerase activity in cervical squamous cell carcinoma and endocervical adenocarcinoma” (Genes & Diseases, 2024).

The target in test [1] is TRF1 TRFH (TRF homology) domain. The test is described as follows: crystal structure; purified TRF1 TRFH-PinX1TBM complex, 2.7 Å.
The target in test [2] is T1, 3×Flag-TERT (purified human telomerase) (human, UniProt O14746 1-1132).
T1 construct: TERT, the protein subunit of human telomerase; Purified as telomerase; also called purified telomerase; source: human telomerase, purified
T1 sequence (O14746 whole entry): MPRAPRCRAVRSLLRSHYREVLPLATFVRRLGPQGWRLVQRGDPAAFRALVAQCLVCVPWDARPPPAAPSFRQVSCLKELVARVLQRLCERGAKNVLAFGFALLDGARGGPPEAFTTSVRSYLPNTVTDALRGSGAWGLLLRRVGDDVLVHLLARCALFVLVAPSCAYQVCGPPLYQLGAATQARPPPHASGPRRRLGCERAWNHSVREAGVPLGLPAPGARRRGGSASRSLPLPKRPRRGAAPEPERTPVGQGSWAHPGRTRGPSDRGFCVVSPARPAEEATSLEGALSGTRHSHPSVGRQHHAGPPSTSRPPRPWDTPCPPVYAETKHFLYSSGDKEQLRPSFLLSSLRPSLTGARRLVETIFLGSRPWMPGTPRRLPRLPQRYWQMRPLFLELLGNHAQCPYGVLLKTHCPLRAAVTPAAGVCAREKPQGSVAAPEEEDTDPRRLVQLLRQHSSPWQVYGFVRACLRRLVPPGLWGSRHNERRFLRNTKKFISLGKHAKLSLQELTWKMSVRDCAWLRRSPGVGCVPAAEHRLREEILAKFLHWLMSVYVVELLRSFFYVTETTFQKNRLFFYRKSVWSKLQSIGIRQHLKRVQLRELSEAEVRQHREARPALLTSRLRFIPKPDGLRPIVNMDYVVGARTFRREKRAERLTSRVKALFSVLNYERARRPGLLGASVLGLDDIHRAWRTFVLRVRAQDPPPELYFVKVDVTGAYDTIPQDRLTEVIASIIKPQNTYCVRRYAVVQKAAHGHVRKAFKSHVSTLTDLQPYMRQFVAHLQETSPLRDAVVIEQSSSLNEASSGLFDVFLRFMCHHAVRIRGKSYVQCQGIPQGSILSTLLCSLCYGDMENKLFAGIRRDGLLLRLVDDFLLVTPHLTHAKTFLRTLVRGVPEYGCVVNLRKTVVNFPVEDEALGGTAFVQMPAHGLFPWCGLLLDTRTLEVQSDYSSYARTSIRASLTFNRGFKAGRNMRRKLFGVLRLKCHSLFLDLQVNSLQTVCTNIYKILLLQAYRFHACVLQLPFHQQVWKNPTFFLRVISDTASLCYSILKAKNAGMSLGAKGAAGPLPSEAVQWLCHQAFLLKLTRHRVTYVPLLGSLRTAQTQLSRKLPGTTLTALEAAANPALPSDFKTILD
The test is described as follows: pull-down; GST-PinX1-C (132-328) captured by 3×Flag-TERT (MBP-3×Flag as control), Western blot. The conditions noted are these: both partners purified. (In general: In western blotting, separated proteins are transferred to a membrane and probed.)

Test [3] concerns the target T1, 3×Flag-TERT (purified human telomerase). The test is described as follows: pull-down; 3×Flag-TERT (purified telomerase) captured by GST-PinX1 constructs (GST as control), silver staining and Western blot. The conditions noted are these: both partners purified.

In the case of “TRF1 TRFH (TRF homology) domain (domain or fragment)”, in test [1], the stoichiometry N (commonly a count of units in the complex or per binding partner) came out at 2.

B1: GST-PinX1(132-328) (domain or fragment, UniProt Q96BK5 132-328, looked up)
chain: GKDLSSRSKTDLDCIFGKRQSKKTPEGDASPSTPEENETTTTSAFTIQEYFAKRMAALKNKPQVPVPGSDISETQVERKRGKKRNKEATGKDVESYLQPKAKRHTEGKPERAEAQERVAKKKSAPAEEQLRGPCWDQSSKASAQDAGDHVQPPEGRDFTLKPKKRRGKKKLQKPVEIAEDATLEETLVKKKKKKDSK
notes: PinX1 residues 132-328; also called GST-PinX1-C (132–328); CTD (C-terminal domain)
In the case of B1, the binding result in test [2] is reported as “binds”.

B2: GST-PinX1(203-328) (domain or fragment, UniProt Q96BK5 203-328, looked up)
chain: SETQVERKRGKKRNKEATGKDVESYLQPKAKRHTEGKPERAEAQERVAKKKSAPAEEQLRGPCWDQSSKASAQDAGDHVQPPEGRDFTLKPKKRRGKKKLQKPVEIAEDATLEETLVKKKKKKDSK
notes: PinX1 residues 203-328 (TID)
B2: in test [3], the binding result is reported as “binds”.
